Molecular target: Ino80 carrying a C-terminal 2xFlag-tag (S. cerevisiae) (UniProt P53115)
Sequence of UniProt P53115 (P53115 whole entry): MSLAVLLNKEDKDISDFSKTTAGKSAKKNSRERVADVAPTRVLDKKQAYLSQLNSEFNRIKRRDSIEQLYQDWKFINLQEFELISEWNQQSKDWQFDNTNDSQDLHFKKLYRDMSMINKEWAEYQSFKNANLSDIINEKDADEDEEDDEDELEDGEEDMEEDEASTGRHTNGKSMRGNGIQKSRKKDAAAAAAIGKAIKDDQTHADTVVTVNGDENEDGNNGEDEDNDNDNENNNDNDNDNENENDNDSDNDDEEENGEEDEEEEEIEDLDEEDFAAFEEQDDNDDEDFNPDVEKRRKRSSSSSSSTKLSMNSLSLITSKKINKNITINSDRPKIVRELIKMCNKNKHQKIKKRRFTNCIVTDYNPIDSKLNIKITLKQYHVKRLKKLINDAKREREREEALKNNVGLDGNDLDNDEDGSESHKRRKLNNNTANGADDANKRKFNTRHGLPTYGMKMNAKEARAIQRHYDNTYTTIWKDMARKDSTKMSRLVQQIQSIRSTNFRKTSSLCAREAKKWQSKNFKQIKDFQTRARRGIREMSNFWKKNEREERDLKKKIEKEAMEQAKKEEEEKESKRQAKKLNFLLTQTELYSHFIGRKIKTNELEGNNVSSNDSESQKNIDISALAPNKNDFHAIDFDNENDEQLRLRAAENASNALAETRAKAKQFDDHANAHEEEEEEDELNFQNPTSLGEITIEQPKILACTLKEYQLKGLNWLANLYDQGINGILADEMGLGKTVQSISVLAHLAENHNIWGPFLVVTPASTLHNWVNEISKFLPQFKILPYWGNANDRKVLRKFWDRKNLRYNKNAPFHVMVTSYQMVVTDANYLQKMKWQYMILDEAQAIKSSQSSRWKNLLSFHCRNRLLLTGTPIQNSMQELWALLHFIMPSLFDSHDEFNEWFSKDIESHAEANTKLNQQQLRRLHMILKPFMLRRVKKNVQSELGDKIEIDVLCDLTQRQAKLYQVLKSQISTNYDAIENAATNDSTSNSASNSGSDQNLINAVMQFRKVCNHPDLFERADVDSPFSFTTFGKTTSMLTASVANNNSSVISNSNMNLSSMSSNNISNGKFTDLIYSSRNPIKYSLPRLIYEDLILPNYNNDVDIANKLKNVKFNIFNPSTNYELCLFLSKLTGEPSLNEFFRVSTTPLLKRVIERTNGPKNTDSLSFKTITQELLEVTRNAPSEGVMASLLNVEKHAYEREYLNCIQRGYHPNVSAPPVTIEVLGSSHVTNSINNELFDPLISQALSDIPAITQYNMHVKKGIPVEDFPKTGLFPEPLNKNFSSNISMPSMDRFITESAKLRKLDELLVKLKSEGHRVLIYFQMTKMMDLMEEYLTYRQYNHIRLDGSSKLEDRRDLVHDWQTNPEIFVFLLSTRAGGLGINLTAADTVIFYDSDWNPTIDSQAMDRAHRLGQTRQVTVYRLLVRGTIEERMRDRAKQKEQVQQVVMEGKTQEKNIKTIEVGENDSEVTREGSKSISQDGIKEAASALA

B1: S. cerevisiae Reb1 with a Streptavidin tag at the C terminus (natural protein)
chain: MPSGHNDKNANQESVEEAVLKYVGVGLDHQNHDPQLHTKDLENKHSKKQNIVESSSDVDVNNNDDSNRNEDNNDDSENISALNANESSSNVDHANSNEQHNAVMDWYLRQTAHNQQDDEDDENNNNTDNGNDSNNHFSQSDIVVDDDDDKNKKDAGVGVDDDHQSMAMAAVAAAYTLSKNNNNNNSIANDSNSRKRQHDNGNNHENSQKKRKNNNDDDDRQIGNVDPELTTLGDADDNDTNNDVIDRDQLVHKAIIDADSITQHPDFQQYLNTAADTDDNEKLKHIKDHLMRTHGLNHQNKNHNDDTDDLSNSTKQYSELQKDSMLDSSLNKSRNYMEVLPKVISQDTQPHQQKSPSHDNEAGSVDNSEISQLLQSAATKASSLVSLSSSSATPSTSRSNNSKAFDKAEDAALERFINEYEAIERLTRQQVCERIWSSDRPKDNFWNNIYKVLPYRSSSSIYKHMRRKYHIFEQRGKWTAEEEQELAKLCAEKEGQWAEIGKTLGRMPEDCRDRWRNYVKCGTNRASNRWSVEEEELLKKVISDMLEEAQQQQSQLHPNLLEEEQHLLQDDQNDHRNNDEDDDDTASAAAAAAAAIQEQQQLLQQKQQDDDDAIAAAAAAASSSLGDNKDEDKPHDSLGIQLDDNSQNSMVPAPSATSTHSKSLSNTIRRHNNKLRKSLMGNGKLDFKDIINWTIVSERMGGTRSRIQCRYKWNKLVKREAIAKIQTVKDDDMLWIFEKLRDLGITEDSQVDWDELAALKPGMKLNGLELKLCYERMKKKVKGYKQKSINEISKELVDYFSSNISMKTEN
- NADH-based ATPase activity of the WT INO80 complex with yGL167c-NCP601 mononucleosomes, with against without Reb1: 2 fold
